Patent US20170247452A1 (MacroGenics, published 2017)

Legend:
Assay in all cases: cell-based or functional assay
[1] = biological target: T1, human CD19 on cells (CD20+ gated blood B cells; Raji/GF, HBL-2, Jeko-1 cells; CLL B cells) (human, UniProt P15391 20-556)
T1 sequence (looked up): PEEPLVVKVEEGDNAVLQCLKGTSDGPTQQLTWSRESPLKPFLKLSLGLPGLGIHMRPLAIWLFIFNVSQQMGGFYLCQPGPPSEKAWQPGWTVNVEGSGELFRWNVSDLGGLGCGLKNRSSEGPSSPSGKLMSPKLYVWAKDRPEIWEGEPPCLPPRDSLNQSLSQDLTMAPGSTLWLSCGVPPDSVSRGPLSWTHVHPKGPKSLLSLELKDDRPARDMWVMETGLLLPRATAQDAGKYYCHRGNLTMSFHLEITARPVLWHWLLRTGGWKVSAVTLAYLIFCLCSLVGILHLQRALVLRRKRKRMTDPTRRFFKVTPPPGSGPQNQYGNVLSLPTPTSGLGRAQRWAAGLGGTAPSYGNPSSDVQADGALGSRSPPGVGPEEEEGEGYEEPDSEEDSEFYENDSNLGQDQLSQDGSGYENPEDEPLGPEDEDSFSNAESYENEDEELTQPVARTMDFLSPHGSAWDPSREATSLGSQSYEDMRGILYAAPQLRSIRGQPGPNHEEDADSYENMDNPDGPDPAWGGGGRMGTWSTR

[2] = biological target: T1, human CD19 on cells (CD20+ gated blood …); remark: listed apart in the source
[3] = biological target: T1, human CD19 on cells (CD20+ gated blood …); remark: listed apart in the source
[4] = biological target: T1, human CD19 on cells (CD20+ gated blood …); remark: listed apart in the source
[5] = biological target: T2, cynomolgus monkey CD19 on CD20+ gated blood B cells (cynomolgus monkey, UniProt A0A2K5W8L9 20-557)
T2 sequence: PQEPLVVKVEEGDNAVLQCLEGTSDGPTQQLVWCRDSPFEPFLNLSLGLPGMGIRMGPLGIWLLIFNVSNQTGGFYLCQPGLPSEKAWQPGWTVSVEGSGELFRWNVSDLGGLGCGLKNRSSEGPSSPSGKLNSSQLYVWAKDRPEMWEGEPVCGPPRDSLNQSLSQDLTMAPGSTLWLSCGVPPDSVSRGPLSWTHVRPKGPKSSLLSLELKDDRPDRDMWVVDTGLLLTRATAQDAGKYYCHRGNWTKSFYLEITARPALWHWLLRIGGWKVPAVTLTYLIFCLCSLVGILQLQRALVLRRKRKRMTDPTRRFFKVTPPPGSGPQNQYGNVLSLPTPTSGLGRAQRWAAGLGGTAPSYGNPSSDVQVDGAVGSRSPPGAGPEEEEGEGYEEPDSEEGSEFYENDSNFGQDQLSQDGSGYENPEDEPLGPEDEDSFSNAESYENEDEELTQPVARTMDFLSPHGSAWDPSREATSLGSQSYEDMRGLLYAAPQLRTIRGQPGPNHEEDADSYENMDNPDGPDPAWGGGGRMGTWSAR

[6] = biological target: T1, human CD19 on cells (CD20+ gated blood …); remark: listed apart in the source
[7] = biological target: T1, human CD19 on cells (CD20+ gated blood …); remark: listed apart in the source

B1: DART-A (CD19×CD3 bi-specific monovalent Fc diabody) (bispecific antibody)
chain 1: ENVLTQSPATLSVTPGEKATITCRASQSVSYMHWYQQKPGQAPRLLIYDASNRASGVPSRFSGSGSGTDHTLTISSLEAEDAATYYCFQGSVYPFTFGQGTKLEIKGGGSGGGGEVQLVESGGGLVQPGGSLRLSCAASGFTFSTYAMNWVRQAPGKGLEWVGRIRSKYNNYATYYADSVKGRFTISRDDSKNSLYLQMNSLKTEDTAVYYCVRHGNFGNSYVSWFAYWGQGTLVTVSSASTKGEVAACEKEVAALEKEVAALEKEVAALEKGGGDKTHTCPPCPAPEAAGGPSVFLFPPKPKDTLMISRTPEVTCVVVDVSHEDPEVKFNWYVDGVEVHNAKTKPREEQYNSTYRVVSVLTVLHQDWLNGKEYKCKVSNKALPAPIEKTISKAKGQPREPQVYTLPPSREEMTKNQVSLWCLVKGFYPSDIAVEWESNGQPENNYKTTPPVLDSDGSFFLYSKLTVDKSRWQQGNVFSCSVMHEALHNHYTQKSLSLSPGK
chain 2: QAVVTQEPSLTVSPGGTVTLTCRSSTGAVTTSNYANWVQQKPGQAPRGLIGGTNKRAPWTPARFSGSLLGGKAALTITGAQAEDEADYYCALWYSNLWVFGGGTKLTVLGGGGSGGGGQVTLRESGPALVKPTQTLTLTCTFSGFSLSTSGMGVGWIRQPPGKALEWLAHIWWDDDKRYNPALKSRLTISKDTSKNQVFLTMTNMDPVDTATYYCARMELWSYYFDYWGQGTTVTVSSASTKGKVAACKEKVAALKEKVAALKEKVAALKE
chain 3: not shown
[1]
  EC50, cytotoxicity against Raji/GF target cells with cynomolgus monkey PBMCs as effector cells (E:T = 30:1): 0.013 pM
  average EC50 of redirected killing of HBL-2 cells, human T cells, E:T 10:1: 0.105 pM
  average EC50 of redirected killing of Jeko-1 cells, human T cells, E:T 10:1: 0.146 pM
  average EC50 of redirected killing of Raji/GF cells, human T cells, E:T 10:1: 0.307 pM
[2]
  EC50, redirected killing of Raji/GF cells, 24 hours, E:T = 5:1: 0.67 pM
  EC50, redirected killing of Raji/GF cells, 24 hours, E:T = 10:1: 0.14 pM
  EC50, redirected killing of Raji/GF cells, 48 hours, E:T = 2.5:1: 1.08 pM
  EC50, redirected killing of Raji/GF cells, 48 hours, E:T = 5:1: 0.38 pM
  EC50, redirected killing of Raji/GF cells, 48 hours, E:T = 10:1: 0.0441 pM
[3]
  EC50, redirected killing of Raji/GF cells, 72 hours, E:T = 1:1: 2.79 pM
  EC50, redirected killing of Raji/GF cells, 72 hours, E:T = 2.5:1: 1.54 pM
  EC50, redirected killing of Raji/GF cells, 96 hours, E:T = 1:1: 0.44 pM
  EC50, redirected killing of Raji/GF cells, 96 hours, E:T = 2.5:1: 0.422 pM
[4]
  EC50, autologous B cell depletion in human PBMCs, Human 5 (E:T = 8:1): 6.27 pM
  EC50, autologous B cell depletion in human PBMCs, Human 6 (E:T = 8:1): 2.75 pM
  EC50, autologous B cell depletion in human PBMCs, Human 7 (E:T = 5:1): 5.52 pM
  EC50, autologous B cell depletion in human PBMCs, Human 8 (E:T = 9:1): 1.84 pM
  mean EC50, autologous B cell depletion in human PBMCs: 4.2 pM
[5]
  EC50, autologous B cell depletion in cynomolgus monkey PBMCs, Cyno 5 (E:T = 3:1): 166 pM
  EC50, autologous B cell depletion in cynomolgus monkey PBMCs, Cyno 6 (E:T = 2:1): 859 pM
  EC50, autologous B cell depletion in cynomolgus monkey PBMCs, Cyno 7 (E:T = 3:1): 107 pM
  EC50, autologous B cell depletion in cynomolgus monkey PBMCs, Cyno 8 (E:T = 7:1): 239 pM
  mean EC50, autologous B cell depletion in cynomolgus monkey PBMCs: 343 pM
[6]
  mean EC50, IFN-γ release, human T cells with Raji/GF cells (n = 2): 5.51 pM
  mean EC50, IL-2 release, human T cells with Raji/GF cells (n = 2): 6.32 pM
  mean EC50, TNF-α release, human T cells with Raji/GF cells (n = 2): 3.71 pM
  mean EC50, cytotoxicity, HBL-2 (n = 5), CTL assay: 0.11 pM
  mean EC50, cytotoxicity, Jeko-1 (n = 3), CTL assay: 0.15 pM
  mean EC50, cytotoxicity, Raji/GF (n = 5), CTL assay: 0.31 pM
[7]
  EC50, IFN-γ production, human T cells with Raji/GF cells, donor D44284, E:T = 10:1: 2.44 pM
  EC50, IFN-γ production, human T cells with Raji/GF cells, donor D47067, E:T = 10:1: 8.58 pM
  EC50, IL-2 production, human T cells with Raji/GF cells, donor D44284, E:T = 10:1: 1.33 pM
  EC50, IL-2 production, human T cells with Raji/GF cells, donor D47067, E:T = 10:1: 11.3 pM
  EC50, TNF-α production, human T cells with Raji/GF cells, donor D44284, E:T = 10:1: 0.626 pM
  EC50, TNF-α production, human T cells with Raji/GF cells, donor D47067, E:T = 10:1: 6.79 pM
